Kd and stoichiometry N data for three substances are collected here from article doi:10.1101/2020.06.26.173310.

pKd: −log10 of the molar value. Like-named read-outs stand apart in the source and are kept apart here.

Assay [1] concerns the target response regulator from Agrobacterium fabrum (AtRR) (Agrobacterium fabrum strain C58) (UniProt Q7CY46). Put plainly: SPR.
Assay [2] addresses bacteriophytochrome from Deinococcus radiodurans (DrBphP) (Deinococcus radiodurans strain R1) (UniProt Q9RZA4). In words: ITC.
Assay [3] shares this target. Put plainly: ITC. The source holds these as a separate data set. Background: Isothermal titration calorimetry measures the heat released or taken up as one component is titrated into another.
Assay [4] has as its target response regulator from Deinococcus radiodurans (DrRR) (Deinococcus radiodurans strain R1) (UniProt Q9RZA5). In words: SPR. On the technique in general: In SPR one partner is held on a chip, and binding of the other changes the refractive index at the surface.
For assay [5] the target is unchanged. Put plainly: SPR. The source holds these as a separate data set.
Assay [6] has the same target. Put plainly: SPR. This is another data set of the same source.

Chain of bacteriophytochrome from Deinococcus radiodurans (DrBphP) (Deinococcus radiodurans strain R1) (Q9RZA4 whole entry): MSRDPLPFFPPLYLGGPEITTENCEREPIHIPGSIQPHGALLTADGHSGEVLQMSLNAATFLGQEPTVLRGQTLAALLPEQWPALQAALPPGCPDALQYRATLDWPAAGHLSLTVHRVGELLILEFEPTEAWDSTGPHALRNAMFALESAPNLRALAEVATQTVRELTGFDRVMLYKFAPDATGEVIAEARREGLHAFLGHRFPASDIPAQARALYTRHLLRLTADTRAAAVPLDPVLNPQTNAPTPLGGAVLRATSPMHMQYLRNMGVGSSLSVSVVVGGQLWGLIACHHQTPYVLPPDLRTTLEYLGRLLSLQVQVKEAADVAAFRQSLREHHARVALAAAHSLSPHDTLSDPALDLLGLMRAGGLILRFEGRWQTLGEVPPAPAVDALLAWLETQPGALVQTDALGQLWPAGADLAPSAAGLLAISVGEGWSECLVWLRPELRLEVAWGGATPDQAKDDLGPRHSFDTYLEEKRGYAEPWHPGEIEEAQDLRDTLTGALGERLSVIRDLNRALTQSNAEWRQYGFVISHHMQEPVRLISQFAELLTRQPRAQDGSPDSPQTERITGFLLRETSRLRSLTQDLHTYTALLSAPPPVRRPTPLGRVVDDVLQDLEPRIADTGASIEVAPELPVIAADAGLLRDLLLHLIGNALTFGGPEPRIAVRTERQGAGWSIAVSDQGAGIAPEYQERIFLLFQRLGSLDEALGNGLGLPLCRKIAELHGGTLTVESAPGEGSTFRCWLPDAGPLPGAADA

What is called pKd is the Kd on a negative log10 scale, so that one unit is a factor of ten. In assay [1], “phytochrome 1 from Agrobacterium fabrum strain C58 (AgP1) (from UniProt Q7CY45 1-736) (natural protein)” gave a pKd of less than 3.70.

A word on the stoichiometry N: it is a count of units in the complex or per binding partner. As to “response regulator from Deinococcus radiodurans (DrRR) (from UniProt Q9RZA5 1-149) (natural protein)”, the negative-log Kd (pKd) in assay [2] is 4.98; in assay [3] it was 4.46. In assay [2], this substance displayed a stoichiometry N of 1.

As to “bacteriophytochrome from Deinococcus radiodurans (DrBphP) (from UniProt Q9RZA4 1-755) (natural protein)”, the negative logarithm of the Kd (pKd) in assay [4] is 5.00; in assay [5], 4.22; in assay [6], 4.37. For the same substance, in assay [6], the stoichiometry N is 1.
